Patent US20210389324

T1: CFP-FOXG1-YFP
T1 chain: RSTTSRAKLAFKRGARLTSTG

T2: CFP-NT5M-YFP
T2 chain: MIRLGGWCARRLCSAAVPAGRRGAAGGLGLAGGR

T3: CFP-SFRP1-YFP
T3 chain: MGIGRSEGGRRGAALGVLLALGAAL

T4: CFP-SFRP2-YFP
T4 chain: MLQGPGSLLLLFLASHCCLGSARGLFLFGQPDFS

T5: CFP-SFRP4-YFP
T5 chain: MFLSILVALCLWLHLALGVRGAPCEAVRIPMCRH

T6: CFP-SFVp12-YFP 11:6
T6 chain: DVEELEYHAGAGVVETP

T7: CFP-SFVp12-YFP 19:6
T7 chain: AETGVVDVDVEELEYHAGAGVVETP


Tests used:
CFP-FOXG1-YFP = biological target: T1, CFP-FOXG1-YFP
CFP-NT5M-YFP = biological target: T2, CFP-NT5M-YFP
CFP-SFRP1-YFP = biological target: T3, CFP-SFRP1-YFP
CFP-SFRP2-YFP = biological target: T4, CFP-SFRP2-YFP
CFP-SFRP4-YFP = biological target: T5, CFP-SFRP4-YFP
CFP-SFVp12-YFP 11:6 = biological target: T6, CFP-SFVp12-YFP 11:6
CFP-SFVp12-YFP 19:6 = biological target: T7, CFP-SFVp12-YFP 19:6

Protein	cleavage of CFP-YFP substrate (CFP-FOXG1-YFP)	cleavage of CFP-YFP substrate (CFP-NT5M-YFP)	cleavage of CFP-YFP substrate (CFP-SFRP1-YFP)	cleavage of CFP-YFP substrate (CFP-SFRP2-YFP)	cleavage of CFP-YFP substrate (CFP-SFRP4-YFP)	cleavage of CFP-YFP substrate (CFP-SFVp12-YFP 11:6)	cleavage of CFP-YFP substrate (CFP-SFVp12-YFP 19:6)
Recombinant ZIKV ns2B/ns3 Protease (protein) MGSSHHHHHHSSGLVPRGSHMVDMYIERAGDITWEKDAEVTGNSPRLDVALDESGDFSLVEDDGPPMAGGGGSGGGGSGALWDVPAPKEVKKGETTDGVYRVMTRGLLGSTQVGVGVMQEGVFHTMWHVTKGSALRSGEGRLDPYWGDVKQDLVSYSGPWKLDAAWDGHSEVQLLAVPPGERARNIQTLPGIFKTKDGDIGAVALDYPAGTSGSPILDKSGRVIGLYGNGVVIKNGSYVSAITQGRR	ZIKV ns2B-ns3 protease	ZIKV ns2B-ns3 protease	ZIKV ns2B-ns3 protease	Control, not cleaved by ZIKV ns2B-ns3 protease	Control, not cleaved by ZIKV ns2B-ns3 protease		
Recombinant CHIKV nsP2 protease (protein) SNAFQNKANVCWAKSLVPILETAGIKLNDRQWSQIIQAFKEDKAYSPEVALNEICTRMYGVDLDSGLFSKPLVSVYYADNHWDNRPGGKMFGFNPEAASILERKYPFTKGKWNINKQICVTTRRIEDFNPTTNIIPVNRRLPHSLVAEHRPVKGERMEWLVNKINGHHVLLVSGYNLALPTKRVTWVAPLGVRGADYTYNLELGLPATLGRYDLVVINIHTPFRIHHYQQCVDHAMKLQMLGGDSLRLLKPGGSLLIRAYGYADRTSERVICVLGRKFRSSRALKPPCVTSNTEMFFLFSNFDNGRRNFTTHVMNNQLNAAFVG						CHIKV and VEEV nsP2 cysteine protease	CHIKV and VEEV nsP2 cysteine protease
